Test results as given in patent publication US20230265185A1 (NATIONAL RESEARCH COUNCIL OF CANADA, published 2023).

B1: hCD221ug-80 (VHH)
VHH: QVQLVESGGGLVQPGGSLRLSCTFSGFTLDYYVMVWFRQAPGKEREAVSCITSDGVTYYADSVKGRFTISRDNAKNTVYLQMNRVKPEDTAVYYCAVDKPFYDGGIQYTCPVDFDSWGQGAQVTVSS
modifications: single biotin at the VHH C-terminal (biotinylation signal sequence)
notes: llama VHH, expressed in E. coli TG1, IMAC purified, monomeric SEC fraction; also called VHH # 1; 2-hCD22 1ug-80
B2: hCD221ug-13 (VHH)
VHH: QVQLVESGGGLVQAGDSLRLSCAGSGGSFSSVTMAWFRQAPGKDREFVAAITWSSPSTYYADSVKGRFTISRDNAKNTVYLQMNSLKPEDTAVYYCAGGRTGRGTSADTDEYNYWGQGTQVTVSS
modifications: single biotin at the VHH C-terminal (biotinylation signal sequence)
notes: llama VHH, expressed in E. coli TG1, IMAC purified, monomeric SEC fraction; also called VHH # 21; 1-hCD22 1ug-13
B3: hCD221ug-61 (VHH)
VHH: QVQLVESGGGLVQAGGSLRLSCAASMSSFSQYVMYWYRQAPGKQRELVATITSYSNTNYADSVKGRFTISRDNAKSIAYLQMDSLKPEDTAVYYCNAQYGSTFIRNHWDDWGQGTQVTVSS
modifications: single biotin at the VHH C-terminal (biotinylation signal sequence)
notes: llama VHH, expressed in E. coli TG1, IMAC purified, monomeric SEC fraction; also called VHH # 14; 3-hCD22 1ug-61
B4: hCD221ug-36 (VHH)
VHH: EVQLVDSGGGLVQAGGSLRVSCEASGITFSRAAMGWYRQRPGKERERVAVVNSDSSTIYADSVKGRFTISRDNAKNTVYLQMNSLEPEDTAVYYCWSPGFGSYWGQGTQVTVSS
modifications: single biotin at the VHH C-terminal (biotinylation signal sequence)
notes: llama VHH, expressed in E. coli TG1, IMAC purified, monomeric SEC fraction; also called VHH # 22; 4-hCD22 1ug-36
B5: hCD221ug-10 (VHH)
VHH: QVQLVESGGGLVQAGGSLSVSCTASESTFSIMMGWFRQAPGKQREMVAVINSAGSTNYADSAEGRFTISRDLAKKTVSLQMNSLKPEDTAVYYCYVDGYFGQGTQVTVSS
modifications: single biotin at the VHH C-terminal (biotinylation signal sequence)
notes: llama VHH, expressed in E. coli TG1, IMAC purified, monomeric SEC fraction; also called VHH # 23; 5-hCD22 1ug-10
B6: hCD22pas-32 (VHH)
VHH: QVQLVESGGGLVQAGGSLRLSCAVSGRIFRSYVLGWFRQAPGKERELVARIGWSDTYYADSVKGRFTISRDNAKNTVDLQMNSLKPEDTAVYYCAANSPPYGPQRDEFGYWGQGTQVTVSS
modifications: single biotin at the VHH C-terminal (biotinylation signal sequence)
notes: llama VHH, expressed in E. coli TG1, IMAC purified, monomeric SEC fraction; also called VHH # 15; 6-hCD22 pas-32
B7: hCD22pas-64 (VHH)
VHH: QVQLVESGGGLVQAGGSLRLSCAASGSTFSLNTMAWYRQAPGNQREYVAAASSDGYTNYADSVRGRFTISRDNDKNTMYLQMNSLRPEDTAVYYCTWGTGRFADYIYWGQGTQVTVSS
modifications: single biotin at the VHH C-terminal (biotinylation signal sequence)
notes: llama VHH, expressed in E. coli TG1, IMAC purified, monomeric SEC fraction; also called VHH # 25; 7-hCD22 pas-64
B8: hCD22pas-24 (VHH)
VHH: QVQLVESGGGLVQAGGSLRLSCSASGITSSINSMGWHRQAPGKQRELVASIGRGGSGSTKYADSGKGRFLISRDNNKNILFLEMNSLKPEDTADYYCLEVTTDLSSYWGRGTQVTVSS
modifications: single biotin at the VHH C-terminal (biotinylation signal sequence)
notes: llama VHH, expressed in E. coli TG1, IMAC purified, monomeric SEC fraction; also called VHH # 26; 8-hCD22 pas-24

What was measured:
[1] = target: T1, hCD22 fragment Bin 6, IVR6 (aa476-575), displayed on yeast cells (human, UniProt P20273 495-594); assay: yeast display cell ELISA, OD on denatured over non-denatured CD22 fragment
T1 construct: range 476-575; Range is counted on the mature ECD, not on the UniProt entry; on P20273 it would be 495-594 (my arithmetic); also called CD22 Sub-Domain 6; not shown: Aga2-HA display fusion partner of vector pPNL6; MYC tag
T1 sequence (looked up): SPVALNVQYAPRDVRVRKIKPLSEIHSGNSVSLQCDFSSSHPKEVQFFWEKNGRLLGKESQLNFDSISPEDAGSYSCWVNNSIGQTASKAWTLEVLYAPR
Procedure: (§1) The YSD vector (pPNL6) was from The Pacific Northwest National Laboratory, USA. […] The HRP activity was assayed with substrate TMB (tetramethyl benzidine) according to the manufacture’s conditions and read at OD₄₅₀.
(§2) Table 7 depicts the assessment of the nature of the epitopes of CD22 sdAbs to determine if the epitopes for the sdAbs are continuous (linear) or non-continuous (conformational). […] The binding of each sdAb to native and denatured CD22 fragments was measured as OD₄₅₀, and the ratio of the binding to denatured CD22 to non-denatured CD22 was calculated, with the ratio ≥ 0.5 indicative linear (L), and the ratio < 0.5 indicative of conformational (C) epitopes.

[2] = target: T2, full-length hCD22-ECD (668aa) displayed on yeast cells (human, UniProt P20273 20-687); assay: yeast display cell ELISA, biotinylated sdAb 250 nM
T2 construct: extracellular domain; Yeast surface display fusion Aga2-HA-(insert)-MYC; also called Bin 8; CD22-ECD Full lenght; not shown: Aga2-HA display fusion partner of vector pPNL6; MYC tag
T2 sequence (looked up): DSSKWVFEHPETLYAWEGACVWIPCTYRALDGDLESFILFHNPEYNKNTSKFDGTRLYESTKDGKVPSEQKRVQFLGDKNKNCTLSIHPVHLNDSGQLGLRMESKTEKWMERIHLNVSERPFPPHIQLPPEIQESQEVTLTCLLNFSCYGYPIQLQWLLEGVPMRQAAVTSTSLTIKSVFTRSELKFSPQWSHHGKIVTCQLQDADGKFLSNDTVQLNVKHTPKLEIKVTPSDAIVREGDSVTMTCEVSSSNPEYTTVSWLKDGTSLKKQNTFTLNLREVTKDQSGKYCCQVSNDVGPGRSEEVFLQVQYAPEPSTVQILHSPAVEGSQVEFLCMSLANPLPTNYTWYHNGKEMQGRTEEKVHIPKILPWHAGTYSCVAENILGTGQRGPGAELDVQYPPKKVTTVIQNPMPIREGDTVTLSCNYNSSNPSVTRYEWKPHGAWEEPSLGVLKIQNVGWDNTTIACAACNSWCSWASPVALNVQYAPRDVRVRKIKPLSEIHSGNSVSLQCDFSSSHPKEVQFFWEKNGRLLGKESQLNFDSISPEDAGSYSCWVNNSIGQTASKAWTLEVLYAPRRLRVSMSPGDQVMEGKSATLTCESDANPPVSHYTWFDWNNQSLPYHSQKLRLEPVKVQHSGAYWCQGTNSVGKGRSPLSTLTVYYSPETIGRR
Procedure: as §1
(§3) The wells that gave rise to OD₄₅₀ above 0.25 were highlighted, indicating significant antibody-antigen interactions. All the sdAbs tested except hCd22_1ug-14 were assigned to specific Bin(s).

[3] = target: T1, hCD22 fragment Bin 6, IVR6 (aa476-575), …; assay: yeast display cell ELISA, biotinylated sdAb 250 nM
Procedure: as §1, §3

[4] = target: T3, hCD22 fragment Bin 3, IVR3 (aa211-317), displayed on yeast cells (human, UniProt P20273 230-336); assay: yeast display cell ELISA
T3 construct: Range is counted on the mature ECD, not on the UniProt entry; on P20273 it would be 230-336 (my arithmetic); not shown: Aga2-HA display fusion partner of vector pPNL6; MYC tag
T3 sequence (looked up): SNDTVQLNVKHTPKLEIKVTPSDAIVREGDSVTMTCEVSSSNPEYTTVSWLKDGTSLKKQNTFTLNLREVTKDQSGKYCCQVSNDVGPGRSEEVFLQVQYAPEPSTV
Procedure: as §1, §3

[5] = target: T1, hCD22 fragment Bin 6, IVR6 (aa476-575), …; assay: yeast display cell ELISA, native cells
Procedure: as §1, §2

[6] = target: T1, hCD22 fragment Bin 6, IVR6 (aa476-575), …; assay: yeast display cell ELISA, heat denatured cells (80 C, 30 min)
Procedure: as §1, §2

[7] = target: T4, hCD22 fragment Bin 7, IVR7 (aa561-668), displayed on yeast cells (human, UniProt P20273 580-687); assay: yeast display cell ELISA, OD on denatured over non-denatured CD22 fragment
T4 construct: range 561-668; Range is counted on the mature ECD, not on the UniProt entry; on P20273 it would be 580-687 (my arithmetic); also called CD22 Sub-Domain 7; not shown: Aga2-HA display fusion partner of vector pPNL6; MYC tag
T4 sequence (looked up): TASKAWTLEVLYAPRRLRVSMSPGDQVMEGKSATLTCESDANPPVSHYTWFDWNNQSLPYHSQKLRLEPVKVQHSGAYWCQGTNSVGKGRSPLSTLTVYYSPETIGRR
Procedure: as §1, §2

[8] = target: T4, hCD22 fragment Bin 7, IVR7 (aa561-668), …; assay: yeast display cell ELISA, biotinylated sdAb 250 nM
Procedure: as §1, §3

[9] = target: T1, hCD22 fragment Bin 6, IVR6 (aa476-575), …; assay: yeast display cell ELISA
Procedure: as §1, §3

[10] = target: T4, hCD22 fragment Bin 7, IVR7 (aa561-668), …; assay: yeast display cell ELISA, native cells
Procedure: as §1, §2

[11] = target: T4, hCD22 fragment Bin 7, IVR7 (aa561-668), …; assay: yeast display cell ELISA, heat denatured cells (80 C, 30 min)
Procedure: as §1, §2

[12] = target: T4, hCD22 fragment Bin 7, IVR7 (aa561-668), …; assay: yeast display cell ELISA
Procedure: as §1, §3

Binder	CD22 Ratio (D/ND) [1]	OD450 [2] [OD450]	OD450 [3] [OD450]	binding result [4]	Non denatured CD22 OD [5] [OD450]	Heat Inactivated CD22 OD [6] [OD450]	CD22 Ratio (D/ND) [7]	OD450 [8] [OD450]	binding result [9]	Non denatured CD22 OD [10] [OD450]	Heat Inactivated CD22 OD [11] [OD450]	binding result [12]
B1	1.02	1.81	2.25	no binding (tested: OD450 not above 0.25; sdAb 250 nM)	2.57	2.62	–	–	–	–	–	–
B2	0.6	1.19	0.433	no binding (tested: OD450 not above 0.25; sdAb 250 nM)	0.453	0.272	–	–	–	–	–	–
B3	–	1.48	–	no binding (tested: OD450 not above 0.25; sdAb 250 nM)	–	–	0.665	2.84	no binding (tested: OD450 not above 0.25; sdAb 250 nM)	3.5	2.33	–
B4	1	1.42	2.97	no binding (tested: OD450 not above 0.25; sdAb 250 nM)	3.5	3.5	–	–	–	–	–	no binding (tested: OD450 not above 0.25; sdAb 250 nM)
B5	–	0.332	–	no binding (tested: OD450 not above 0.25; sdAb 250 nM)	–	–	0.091	0.75	no binding (tested: OD450 not above 0.25; sdAb 250 nM)	3.5	0.32	–
B6	–	0.289	–	no binding (tested: OD450 not above 0.25; sdAb 250 nM)	–	–	–	–	–	–	–	no binding (tested: OD450 not above 0.25; sdAb 250 nM)
B7	0.684	–	1.38	no binding (tested: OD450 not above 0.25; sdAb 250 nM)	2.98	2.04	–	–	–	–	–	no binding (tested: OD450 not above 0.25; sdAb 250 nM)
B8	–	1.18	–	no binding (tested: OD450 not above 0.25; sdAb 250 nM)	–	–	0.603	2.89	–	3.5	2.11	–
